In the Immune Epitope Database (IEDB) one finds Kd data, which are given here for 5 sequences.

The target in assay [1] is HLA-A*02:01. The assay can be described thus: IEDB peptide-MHC binding, purified MHC/competitive/fluorescence; filed as Kd, often an IC50 or EC50 that approximates it; ≥ and ≤ were set here for values at or beyond the usual limits of such assays.
In the next assay the target is HLA-A*02:03. Described as above.
The next assay concerns the target HLA-A*02:11. The description is as above.
The next assay addresses HLA-A*02:12. Described as above.
A further assay deals with HLA-A*02:16. Described as above.
The next assay deals with HLA-A*02:19. The description is as above.
Assay [2] deals with HLA-A*03:01. Described as above.
For a further assay, the target named is HLA-A*23:01. The assay is described as above.
The target of a further assay is HLA-A*24:03. Described as above.
Another assay addresses HLA-A*26:01. The description is as above.
Another assay concerns the target HLA-A*29:02. The description is as above.
For assay [3], the target named is HLA-A*68:02. The description is as above.
Assay [4] deals with HLA-A*69:01. The description is as above.
Assay [5] concerns the target HLA-B*15:01. Described as above.
The target in the next assay is HLA-B*18:01. The assay is described as above.
The next assay concerns the target HLA-B*39:01. The assay is described as above.
Assay [6] has as its target HLA-B*46:01. The description is as above.
A further assay has as its target HLA-B*51:01. The assay is described as above.
Assay [7] has as its target HLA-B*57:01. The description is as above.
The next assay addresses HLA-B*07:02. Description: IEDB peptide-MHC binding, purified MHC/direct/fluorescence; filed as Kd, often an IC50 or EC50 that approximates it; ≥ and ≤ were set here for values at or beyond the usual limits of such assays.
For assay [8], the target named is HLA-B*15:01. The assay is described as above.
Another assay addresses HLA-B*15:02. Described as above.
In a further assay the target is HLA-B*35:01. Described as above. The following applies: source organism: Escherichia coli O157:H7 str. EC869.
The target in assay [9] is HLA-B*46:01. The description is as above.
In a further assay the target is HLA-B*27:03. The assay can be described thus: IEDB peptide-MHC binding, purified MHC/competitive/fluorescence; filed as Kd, often an IC50 or EC50 that approximates it; ≥ and ≤ were set here for values at or beyond the usual limits of such assays.
In assay [10] the target is HLA-B*15:17. The description is as above. To be noted: source organism: Cryptosporidium parvum Iowa II.
The next assay addresses HLA-A*01:01. Description: IEDB peptide-MHC binding, purified MHC/direct/fluorescence; filed as Kd, often an IC50 or EC50 that approximates it; ≥ and ≤ were set here for values at or beyond the usual limits of such assays. The following applies: source organism: Brucella abortus.
The target of assay [11] is HLA-A*02:01. The description is as above. The following applies: source organism: Brucella abortus.
In assay [12] the target is HLA-A*03:01. The description is as above. To be noted: source organism: Brucella abortus.
The next assay concerns the target HLA-A*11:01. Described as above. To be noted: source organism: Brucella abortus.
In a further assay the target is HLA-A*26:02. The description is as above. To be noted: source organism: Brucella suis 1330.
Another assay addresses HLA-A*31:01. The description is as above. The following applies: source organism: Brucella abortus.
Assay [13] addresses HLA-A*68:02. The assay is described as above. To be noted: source organism: Brucella abortus.
For assay [14], the target named is HLA-A*69:01. The assay is described as above. The following applies: source organism: Brucella abortus.
Another assay addresses HLA-B*08:02. Described as above. To be noted: source organism: Brucella suis 1330.
Another assay concerns the target HLA-B*15:09. The assay is described as above. The following applies: source organism: Brucella suis 1330.
The target of assay [15] is HLA-B*15:17. The assay is described as above. The following applies: source organism: Brucella abortus.
For the next assay, the target named is HLA-B*27:05. The description is as above. To be noted: source organism: Brucella abortus.
The next assay deals with HLA-B*48:01. The assay is described as above. The following applies: source organism: Brucella abortus.
The target in assay [16] is HLA-B*57:01. The assay is described as above. The following applies: source organism: Brucella abortus.
A further assay has as its target HLA-B*58:01. The assay is described as above. The following applies: source organism: Brucella abortus.
[17] abbreviates: source organism: Entamoeba dispar SAW760.
Setting [18] is: source organism: Escherichia coli O157:H7 str. EC869.
Setting [19] is: source organism: Escherichia coli O157:H7.
The mark [20] stands for this setting: source organism: Giardia lamblia ATCC 50803.
Where [21] appears, read: source organism: Cryptosporidium parvum Iowa II.
The mark [22] stands for this setting: source organism: Brucella abortus.

In general, Kd refers to the equilibrium constant for the complex coming apart. On to KGFFRVFKK, for which the dissociation constant Kd with HLA-A*02:01 [1] (setting [17]), with HLA-A*02:03 (setting [17]), in the assay with HLA-A*02:11 (setting [17]), with HLA-A*02:12 (setting [17]), with HLA-A*02:16 (setting [17]) and with HLA-A*02:19 (setting [17]) was not below 20 µM each time. Besides, the Kd in the assay with HLA-A*03:01 [2] (setting [17]) was 0.0049 µM; with HLA-A*23:01 (setting [17]), not below 20 µM; with HLA-A*24:03 (setting [17]) it was not below 20 µM; with HLA-A*26:01 (setting [17]), not below 20 µM; in the assay with HLA-A*29:02 (setting [17]), 0.189 µM; with HLA-A*68:02 [3] (setting [17]), not below 20 µM. Moreover, the equilibrium dissociation constant (Kd) with HLA-A*69:01 [4] (setting [17]), with HLA-B*15:01 [5] (setting [17]), with HLA-B*18:01 (setting [17]), in the assay with HLA-B*39:01 (setting [17]), with HLA-B*46:01 [6] (setting [17]) and with HLA-B*51:01 (setting [17]) was not below 20 µM throughout. This sequence gave an equilibrium dissociation constant (Kd) in the assay with HLA-B*57:01 [7] (setting [17]) not below 20 µM.
With NIAAPYLPF, the Kd with HLA-B*07:02 (setting [18]) is 2.21 µM; with HLA-B*15:01 [8] (setting [19]) it was 0.107 µM; with HLA-B*15:02 (setting [18]), 0.013 µM; with HLA-B*35:01, 0.01 µM; with HLA-B*46:01 [9] (setting [19]) it was not below 20 µM.
Regarding ELLDHLLLF, the dissociation constant (Kd) with HLA-A*02:01 [1] (setting [20]) is not below 20 µM; with HLA-A*02:03 (setting [20]), not below 20 µM; with HLA-A*02:11 (setting [20]), not below 20 µM; with HLA-A*02:12 (setting [20]) it was not below 20 µM; with HLA-A*02:16 (setting [20]) it was not below 20 µM; with HLA-A*02:19 (setting [20]), 0.98 µM. The Kd with HLA-A*03:01 [2] (setting [20]) is not below 20 µM; with HLA-A*29:02 (setting [20]), 0.0161 µM; in the assay with HLA-A*68:02 [3] (setting [20]), not below 20 µM; in the assay with HLA-B*15:01 [5] (setting [20]) it was not below 20 µM; in the assay with HLA-B*18:01 (setting [20]), not below 20 µM; with HLA-B*27:03 (setting [20]), not below 20 µM. The equilibrium dissociation constant (Kd) with HLA-B*39:01 (setting [20]), with HLA-B*46:01 [6] (setting [20]), in the assay with HLA-B*51:01 (setting [20]) and with HLA-B*57:01 [7] (setting [20]) was not below 20 µM each time.
Consider RLKHIFLIF, for which the Kd with HLA-A*02:01 [1] (setting [21]), in the assay with HLA-A*02:03 (setting [21]), with HLA-A*02:11 (setting [21]), with HLA-A*02:12 (setting [21]), with HLA-A*02:16 (setting [21]) and in the assay with HLA-A*02:19 (setting [21]) was not below 20 µM throughout. Besides, the Kd with HLA-A*03:01 [2] (setting [21]), with HLA-A*23:01 (setting [21]), with HLA-A*24:03 (setting [21]), with HLA-A*26:01 (setting [21]), with HLA-A*29:02 (setting [21]) and with HLA-A*68:02 [3] (setting [21]) was not below 20 µM throughout. Also, the dissociation constant Kd with HLA-A*69:01 [4] (setting [21]), with HLA-B*15:17 [10], with HLA-B*18:01 (setting [21]), with HLA-B*27:03 (setting [21]), with HLA-B*39:01 (setting [21]) and with HLA-B*46:01 [6] (setting [21]) was not below 20 µM throughout. For the same sequence, the Kd with HLA-B*51:01 (setting [21]) and with HLA-B*57:01 [7] (setting [21]) was not below 20 µM throughout.
As for GLAEKPNDY, the Kd with HLA-A*01:01, with HLA-A*02:01 [11], with HLA-A*03:01 [12], with HLA-A*11:01, with HLA-A*26:02 and with HLA-A*31:01 was not below 20 µM throughout. Moreover, the Kd with HLA-A*68:02 [13] was not below 20 µM; in the assay with HLA-A*69:01 [14], not below 20 µM; with HLA-B*07:02 (setting [22]), not below 20 µM; with HLA-B*08:02 it was not below 20 µM; with HLA-B*15:01 [8] (setting [22]) it was 0.947 µM; with HLA-B*15:02 (setting [22]) it was 2 µM. For the same sequence, the equilibrium dissociation constant (Kd) with HLA-B*15:09, with HLA-B*15:17 [15], with HLA-B*27:05, in the assay with HLA-B*46:01 [9] (setting [22]), with HLA-B*48:01 and in the assay with HLA-B*57:01 [16] was not below 20 µM throughout. Further, in the assay with HLA-B*58:01, the Kd is not below 20 µM.
